B1: Ab-2 (bispecific antibody)
light: not shown
heavy: QVQLQQSGSELKKPGASVKVSCKASGYTFTNYGMNWVKQAPGQGLKWMGWINTYTGEPTYTDDFKGRFAFSLDTSVSTAYLQISSLKADDTAVYFCARGGFGSSYWYFDVWGQGSLVTVSSASTKGPSVFPLAPSSKSTSGGTAALGCLVKDYFPEPVTVSWNSGALTSGVHTFPAVLQSSGLYSLSSVVTVPSSSLGTQTYICNVNHKPSNTKVDKKVEPKSC
notes: Anti-CD3 scFv fused to the N-terminus of the anti-TROP2 Fab light chain
B2: TROP2 polypeptide complex Ab-3 (bispecific antibody)
light: DIQLTQSPSSLSASVGDRVSITCKASQDVSIAVAWYQQKPGKAPKLLIYSASYRYTGVPDRFSGSGSGTDFTLTISSLQPEDFAVYYCQQHYITPLTFGAGTKVEIKRTVAAPSVFIFPPSDEQLKSGTASVVCLLNNFYPREAKVQWKVDNALQSGNSQESVTEQDSKDSTYSLSSTLTLSKADYEKHKVYACEVTHQGLSSPVTKSFNRGEC
heavy: QTVVTQEPSLTVSPGGTVTLTCRSSTGAVTTSNYANWVQQKPGQAPRGLIGGTNKRAPGTPARFSGSLLGGKAALTLSGVQPEDEAEYYCALWYSNLWVFGGGTKLTVLGGGGSGGGGSGGGGSEVQLVESGGGLVQPGGSLKLSCAASGFTFNTYAMNWVRQAPGKGLEWVARIRSKYNNYATYYADSVKDRFTISRDDSKNTAYLQMNNLKTEDTAVYYCVRHGNFGNSYVSWFAYWGQGTLVTVSSGGGGSQVQLQQSGSELKKPGASVKVSCKASGYTFTNYGMNWVKQAPGQGLKWMGWINTYTGEPTYTDDFKGRFAFSLDTSVSTAYLQISSLKADDTAVYFCARGGFGSSYWYFDVWGQGSLVTVSSASTKGPSVFPLAPSSKSTSGGTAALGCLVKDYFPEPVTVSWNSGALTSGVHTFPAVLQSSGLYSLSSVVTVPSSSLGTQTYICNVNHKPSNTKVDKKVEPKSC
notes: Anti-CD3 scFv fused to the N-terminus of the anti-TROP2 Fab heavy chain
B3: TROP2 TCE polypeptide complex Ab-1 (bispecific antibody)
light: B2 light
heavy: not shown
notes: as for B2

How the values were obtained:
[1] = molecular target: T1, Human TROP2-Biotin (human, UniProt P09758 27-274, biotinylated (site not stated)); assay: BLI (Octet): 10 nM Human TROP2-Biotin loaded on sensor, Ab at 6.25-50 nM, pH 7.4
T1 construct: The text calls the captured antigens 'biotinylated peptides'
T1 sequence (looked up): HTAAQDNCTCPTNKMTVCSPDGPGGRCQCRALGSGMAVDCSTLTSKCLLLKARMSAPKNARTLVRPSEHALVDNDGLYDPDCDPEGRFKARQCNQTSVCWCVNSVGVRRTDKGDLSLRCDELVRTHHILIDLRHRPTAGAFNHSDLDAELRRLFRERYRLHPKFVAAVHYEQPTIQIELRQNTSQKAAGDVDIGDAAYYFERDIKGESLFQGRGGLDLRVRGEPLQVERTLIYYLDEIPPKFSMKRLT

[2] = molecular target: T1, Human TROP2-Biotin; assay: TROP2 ELISA; TROP2-biotin captured on neutravidin-coated plate, antibody titrated, detected with a secondary antibody, OD 450 nm
From the text: A secondary antibody was used to detect bound polypeptide complex. A secondary antibody was used to detect bound polypeptide complex.

[3] = molecular target: T1, Human TROP2-Biotin; assay: BLI (Octet): 10 nM TROP2-biotin loaded on sensor, Ab-3 at 6.25-50 nM, pH 7.4
[4] = molecular target: T1, Human TROP2-Biotin; assay: ELISA; 1 nM Trop2-biotin immobilized (captured on neutravidin-coated plate), Ab-3 titrated, bound complex detected with a secondary antibody, OD 450 nm
From the text: A secondary antibody was used to detect bound polypeptide complex.

Binder | Kd [1] | EC50 [2] | Kd [3] | koff [3] | kon [3] | EC50 [4]
B1 | 687 pM | 90 pM |  |  |  | 
B2 |  |  | 1120 pM | 0.000223 s⁻¹ | 199000 M⁻¹ s⁻¹ | 170 pM
B3 | 466 pM | 80 pM |  |  |  | 

Source: patent publication US20240092931A1 (JANUX THERAPEUTICS, published 2024)
